{
  "source": "paper PMC4990422",
  "about": "“Coupling between the DEAD-box RNA helicases Ded1p and eIF4A” (eLife, 2016)",
  "key": {"Ded1p-eIF4G complex [1]": {"biological_target": "T1, Ded1p-eIF4G complex (S. cerevisiae, UniProt P06634 1-604; P39935 1-952; P07260 1-213)", "T1 construct": "Ded1p, S. cerevisiae, wild type, as Wm1; eIF4G1, S. cerevisiae, as in Wm3; eIF4E, S. cerevisiae, as in Wm3; present in the preparations of eIF4G; State of the thermodynamic model; also called DG; DTG; source: formed from the purified recombinant proteins; copies: + +", "T1 sequence (P06634 whole entry, one chain of several)": "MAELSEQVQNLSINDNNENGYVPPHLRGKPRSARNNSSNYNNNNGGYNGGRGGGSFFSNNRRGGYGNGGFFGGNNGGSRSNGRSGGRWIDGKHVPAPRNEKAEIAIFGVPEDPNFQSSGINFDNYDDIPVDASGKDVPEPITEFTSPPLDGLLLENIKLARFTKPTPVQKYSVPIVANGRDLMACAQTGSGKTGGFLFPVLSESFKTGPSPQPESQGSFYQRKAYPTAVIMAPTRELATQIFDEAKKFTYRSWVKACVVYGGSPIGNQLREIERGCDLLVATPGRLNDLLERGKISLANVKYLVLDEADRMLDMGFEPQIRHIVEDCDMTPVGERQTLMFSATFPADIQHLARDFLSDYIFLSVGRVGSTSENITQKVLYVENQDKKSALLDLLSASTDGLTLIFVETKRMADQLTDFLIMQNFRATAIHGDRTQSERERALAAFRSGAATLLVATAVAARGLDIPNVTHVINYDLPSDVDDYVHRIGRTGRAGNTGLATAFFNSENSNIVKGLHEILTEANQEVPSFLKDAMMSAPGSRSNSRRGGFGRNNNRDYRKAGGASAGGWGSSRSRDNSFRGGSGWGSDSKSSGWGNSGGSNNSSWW", "test": "global fit of RNA unwinding time courses to a thermodynamic model; K1/2 of a binding step calculated with the model of Figure 4A; RNA bound to the target before the step, ATP bound to eIF4A", "conditions": "both partners purified"}, "eIF4G [2]": {"biological_target": "T2, eIF4G (S. cerevisiae, UniProt P39935 1-952; P07260 1-213)", "T2 construct": "eIF4G1, scaffolding protein of translation initiation, S. cerevisiae; present in the preparations of eIF4G; the model treats G as one unit; also called eIF4G1; S•Tag-eIF4G; source: recombinant, expression and purification previously described (Hilliker et al., 2011)", "T2 sequence (looked up) 1": "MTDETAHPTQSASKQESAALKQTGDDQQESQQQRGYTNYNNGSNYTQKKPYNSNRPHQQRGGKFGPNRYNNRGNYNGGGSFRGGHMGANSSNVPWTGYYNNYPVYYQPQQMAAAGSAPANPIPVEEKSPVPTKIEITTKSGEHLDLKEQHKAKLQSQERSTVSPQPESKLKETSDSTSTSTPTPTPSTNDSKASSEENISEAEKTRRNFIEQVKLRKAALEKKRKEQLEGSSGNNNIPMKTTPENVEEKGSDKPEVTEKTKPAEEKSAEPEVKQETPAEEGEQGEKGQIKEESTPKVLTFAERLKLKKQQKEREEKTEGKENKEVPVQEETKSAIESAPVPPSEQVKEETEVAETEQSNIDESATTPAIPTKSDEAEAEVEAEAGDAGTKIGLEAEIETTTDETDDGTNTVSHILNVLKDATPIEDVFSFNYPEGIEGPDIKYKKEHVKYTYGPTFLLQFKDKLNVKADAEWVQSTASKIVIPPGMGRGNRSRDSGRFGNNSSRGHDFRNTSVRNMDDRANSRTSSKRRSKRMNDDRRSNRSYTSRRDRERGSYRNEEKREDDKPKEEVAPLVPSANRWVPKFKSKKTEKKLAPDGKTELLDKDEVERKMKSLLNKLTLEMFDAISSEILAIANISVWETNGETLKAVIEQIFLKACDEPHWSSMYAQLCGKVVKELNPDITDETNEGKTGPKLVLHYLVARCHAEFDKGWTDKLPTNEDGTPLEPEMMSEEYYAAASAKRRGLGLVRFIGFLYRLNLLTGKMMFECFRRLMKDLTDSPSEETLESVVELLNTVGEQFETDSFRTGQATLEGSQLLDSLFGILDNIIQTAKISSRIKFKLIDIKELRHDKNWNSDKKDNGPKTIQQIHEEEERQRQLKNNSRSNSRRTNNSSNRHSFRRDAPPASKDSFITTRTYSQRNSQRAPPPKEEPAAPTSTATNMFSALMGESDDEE", "T2 sequence (looked up) 2": "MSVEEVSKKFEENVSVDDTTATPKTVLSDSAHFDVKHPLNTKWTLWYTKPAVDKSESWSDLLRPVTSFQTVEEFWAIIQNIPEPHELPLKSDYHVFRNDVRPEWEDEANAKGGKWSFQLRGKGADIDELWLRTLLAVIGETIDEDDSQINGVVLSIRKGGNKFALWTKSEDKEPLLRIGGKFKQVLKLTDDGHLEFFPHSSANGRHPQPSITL", "test": "global fit of RNA unwinding time courses to a thermodynamic model; K1/2 of a binding step calculated with the model of Figure 4A; RNA bound to the target before the step, ATP bound to eIF4A", "conditions": "both partners purified"}, "Ded1p-eIF4G complex [3]": {"biological_target": "T1, Ded1p-eIF4G complex", "test": "global fit of RNA unwinding time courses to a thermodynamic model; K1/2 of a binding step calculated with the model of Figure 4A; RNA bound to the binder before the step, no ATP", "conditions": "both partners purified"}, "eIF4G [4]": {"biological_target": "T2, eIF4G", "test": "global fit of RNA unwinding time courses to a thermodynamic model; K1/2 of a binding step calculated with the model of Figure 4A; RNA bound to the binder before the step, no ATP", "conditions": "both partners purified"}, "Ded1p-eIF4G complex [5]": {"biological_target": "T1, Ded1p-eIF4G complex", "test": "global fit of RNA unwinding time courses to a thermodynamic model; K1/2 of a binding step calculated with the model of Figure 4A; step without RNA, ATP bound to eIF4A", "conditions": "both partners purified"}, "eIF4G [6]": {"biological_target": "T2, eIF4G", "test": "global fit of RNA unwinding time courses to a thermodynamic model; K1/2 of a binding step calculated with the model of Figure 4A; step without RNA, ATP bound to eIF4A", "conditions": "both partners purified"}, "Ded1p-eIF4G complex [7]": {"biological_target": "T1, Ded1p-eIF4G complex", "test": "global fit of RNA unwinding time courses to a thermodynamic model; K1/2 of a binding step calculated with the model of Figure 4A (Kintek Global Explorer; 16 bp duplex, 25 nt 3' overhang); step without RNA and without ATP", "conditions": "both partners purified"}, "eIF4G [8]": {"biological_target": "T2, eIF4G", "test": "global fit of RNA unwinding time courses to a thermodynamic model; K1/2 of a binding step calculated with the model of Figure 4A (Kintek Global Explorer; 16 bp duplex, 25 nt 3' overhang); step without RNA and without ATP", "conditions": "both partners purified"}, "[9]": {"biological_target": "HA-tagged Ded1p (His6-Ded1p-HA3) (S. cerevisiae), P06634", "sequence (P06634 whole entry)": "as the sequence (P06634 whole entry, one chain of several) above", "test": "pull-down; Ded1p-HA held on anti-HA antibody and Protein G Dynabeads; 300 nM S•Tag-eIF4G and 1500 nM eIF4A added together; 20 µg/mL RNases A,B; 8°C overnight; washed with HRB-Na100 buffer; Western blot", "conditions": "remark: other sources report otherwise"}, "eIF4G [10]": {"biological_target": "T2, eIF4G", "test": "global fit of RNA unwinding time courses to a thermodynamic model; K1/2 of a binding step calculated with the model of Figure 4A; RNA bound to the binder before the step, ATP bound to eIF4A", "conditions": "both partners purified"}},
  "data": [
    {"binder": "eIF4A (enzyme, S. cerevisiae, UniProt P10081 1-395, looked up, eIF4A, DEAD-box RNA helicase, S. cerevisiae, wild type; also called wild-type yeast eIF4A; source: recombinant, purified as described (Hilliker et al., 2011)) MSEGITDIEESQIQTNYDKVVYKFDDMELDENLLRGVFGYGFEEPSAIQQRAIMPIIEGHDVLAQAQSGTGKTGTFSIAALQRIDTSVKAPQALMLAPTRELALQIQKVVMALAFHMDIKVHACIGGTSFVEDAEGLRDAQIVVGTPGRVFDNIQRRRFRTDKIKMFILDEADEMLSSGFKEQIYQIFTLLPPTTQVVLLSATMPNDVLEVTTKFMRNPVRILVKKDELTLEGIKQFYVNVEEEEYKYECLTDLYDSISVTQAVIFCNTRRKVEELTTKLRNDKFTVSAIYSDLPQQERDTIMKEFRSGSSRILISTDLLARGIDVQQVSLVINYDLPANKENYIHRIGRGGRFGRKGVAINFVTNEDVGAMRELEKFYSTQIEELPSDIATLLN", "values": [
      {"measurement": "Kd", "setting": "Ded1p-eIF4G complex [1]", "value": 14, "unit": "nM"},
      {"measurement": "Kd", "setting": "eIF4G [2]", "value": 2100, "unit": "nM"},
      {"measurement": "Kd", "setting": "Ded1p-eIF4G complex [3]", "value": 0.003, "unit": "nM"},
      {"measurement": "Kd", "setting": "eIF4G [4]", "value": 25, "unit": "nM"},
      {"measurement": "Kd", "setting": "Ded1p-eIF4G complex [5]", "value": 0.28, "unit": "nM"},
      {"measurement": "Kd", "setting": "eIF4G [6]", "value": 1000, "unit": "nM"},
      {"measurement": "Kd", "setting": "Ded1p-eIF4G complex [7]", "value": 0.14, "unit": "nM"},
      {"measurement": "Kd", "setting": "eIF4G [8]", "value": 500, "unit": "nM"},
      {"measurement": "relative band intensity (pull-down compared to input), with eIF4G present", "setting": "[9]", "value": 25, "unit": "%"},
      {"measurement": "Kd", "setting": "eIF4G [10]", "value": 49, "unit": "nM"}
    ]}
  ]
}
